Data as given in US20220281976A1 (Alector, published 2022).

T1: mouse CD33 Fc fusion protein (mouse, UniProt Q63994 18-240, limits assumed)
T1 construct: also called mCD33-Fc
T1 sequence: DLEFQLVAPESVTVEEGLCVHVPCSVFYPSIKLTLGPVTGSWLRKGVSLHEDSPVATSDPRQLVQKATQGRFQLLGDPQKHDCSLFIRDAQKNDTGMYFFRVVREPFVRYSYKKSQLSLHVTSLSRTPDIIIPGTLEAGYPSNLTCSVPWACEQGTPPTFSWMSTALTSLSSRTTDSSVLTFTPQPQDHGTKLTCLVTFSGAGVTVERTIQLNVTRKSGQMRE


Experiments:
human CD33 [1] = molecular target: T2, human CD33 (human, UniProt P20138 18-364); assay: flow cytometry, human primary dendritic cells;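 also: binding of anti-CD33 antibodies (10 ug/ml, 1 h on ice) to human primary dendritic cells, detected with a PE-labelled secondary antibody, reported as flow cytometry MFI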
T2 construct: CD33 on human primary dendritic cells, macrophages, monocytes and T cells and on CHO cells expressing recombinant human CD33; also called Siglec-3; hCD33

[2] = molecular target: T3, human CD33 Fc fusion protein (human, UniProt P20138 18-259); assay: ForteBio BLI or MSD-SET, IgG, avid;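 also: Anti-CD33 IgG affinity by BLI, IgG captured on AHQ sensors with antigen in solution and a one-to-one kinetic fit, or by MSD solution equilibrium titration with quadratic fit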
T3 construct: also called hCD33-Fc; human CD33/Fc chimera (R&D Systems)

human CD33 [3] = molecular target: T2, human CD33; assay: flow cytometry, human primary monocytes; design: reference not given here;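 also: binding of anti-CD33 antibodies at 10 ug/ml to human primary monocytes, 1 h on ice, detected by PE-labelled secondary antibody, flow cytometry readout as mean fluorescence intensity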
human CD33 [4] = molecular target: T2, human CD33; assay: flow cytometry, human primary macrophages;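 also: binding of CD33 antibodies at 10 µg/ml to human primary macrophages, 1 h on ice, detected with PE-labelled secondary antibody by flow cytometry, reported as MFI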
[5] = molecular target: T3, human CD33 Fc fusion protein; assay: RBC adhesion to plate-bound CD33-Fc; antibody 0.5 ug/ml;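 also: Plate-coated CD33-Fc preincubated 1 h with antibody, then red blood cells added for 1 h at room temperature, adherent cells lysed and quantified via peroxidase activity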
[6] = molecular target: T1, mouse CD33 Fc fusion protein; assay: ForteBio BLI or MSD-SET
[7] = molecular target: T4, human monomeric His tagged CD33 protein (human, UniProt P20138 18-259); assay: ForteBio BLI or MSD-SET, IgG, monomeric antigen;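 also: BLI: antibodies captured on AHQ sensors, 100 nM antigen association 5 min, dissociation 5 min, 1:1 fit. MSD-SET: antigen fixed at 50 pM, antibody titrated, quadratic fit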
T4 construct: also called hCD33-His

human CD33 [8] = molecular target: T2, human CD33; assay: cell-based or functional assay
human CD33 [9] = molecular target: T2, human CD33; assay: flow cytometry, human primary T cells;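 also: binding of anti-CD33 antibodies at 10 ug/ml to human primary T cells, 1 h on ice, detected with PE-labelled secondary antibody, read as flow cytometry MFI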
Protocol: Initial characterization of CD33 antibodies involved determining their ability to bind CD33 expressed on a CHO cell line, on human primary monocytes, human primary macrophages, human primary dendritic cells, and on human primary T cells. Cells were harvested, plated at 10⁶/ml in a 96 well plate, and incubated in 100 ul PBS containing 2% FBS, 2 mM EDTA and 10 ug/ml Mab and Fc blocking reagent for 1 hour in ice. Cells were washed twice and incubated in 100 ul PBS containing 2% FBS, 2 mM EDTA and 5 ug/ml PE-conjugated secondary antibody for 30 minutes on ice. Cells were washed twice in cold PBS and analyze by flow cytometry on a BD FACS Canto. Data analysis and calculation of MFI values was performed with FlowJo (TreeStar) software version 10.0.7.

[10] = molecular target: T3, human CD33 Fc fusion protein; assay: RBC adhesion to plate-bound CD33-Fc; antibody 1.0 ug/ml;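 also: red blood cells adhering to plate-coated CD33-Fc after 1 h antibody pretreatment, then 1 h at room temperature, bound cells read as peroxidase activity after lysis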

T2 sequence (P20138 18-364): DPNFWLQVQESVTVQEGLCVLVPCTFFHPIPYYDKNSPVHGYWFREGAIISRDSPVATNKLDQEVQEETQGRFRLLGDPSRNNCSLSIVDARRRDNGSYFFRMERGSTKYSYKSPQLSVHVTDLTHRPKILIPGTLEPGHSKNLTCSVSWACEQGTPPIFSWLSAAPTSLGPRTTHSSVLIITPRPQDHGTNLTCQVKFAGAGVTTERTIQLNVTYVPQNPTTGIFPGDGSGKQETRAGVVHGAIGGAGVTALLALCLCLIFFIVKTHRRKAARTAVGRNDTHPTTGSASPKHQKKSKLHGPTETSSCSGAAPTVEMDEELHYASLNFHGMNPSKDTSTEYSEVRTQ
T3 sequence (P20138 18-259 limits assumed): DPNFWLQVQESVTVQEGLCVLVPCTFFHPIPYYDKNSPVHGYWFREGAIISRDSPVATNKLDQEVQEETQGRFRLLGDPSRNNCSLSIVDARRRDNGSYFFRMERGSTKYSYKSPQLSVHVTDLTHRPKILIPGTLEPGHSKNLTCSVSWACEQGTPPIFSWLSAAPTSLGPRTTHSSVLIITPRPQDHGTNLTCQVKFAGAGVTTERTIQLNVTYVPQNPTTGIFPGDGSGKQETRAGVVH
T4 sequence (P20138 18-259 limits assumed): as above

Binder | DC MFI (human CD33 [1]) | Kd [2] | Monocyte MFI (human CD33 [3]) | Macrophage MFI (human CD33 [4]) | Percent RBC Binding to CD33 [5] | binding result [6] | Kd [7] | Percent CD33 Surface Expression, DC % CD33 (human CD33 [8]) | Percent CD33 Surface Expression, Macrophage % CD33 (human CD33 [8]) | Percent CD33 Surface Expression, Monocyte % CD33 (human CD33 [8]) | T cell MFI (human CD33 [9]) | Percent RBC Binding to CD33 [10]
C-90 (antibody, V domains shown, human IgG1) VH: EVQLVESGGGLVQPGGSLRLSCAASGFTFSSYWMSWVRQAPGKGLEWVANINQDGSEKYYVDSVKGRFTISRDNAKNSLYLQMNSLRAEDTAVYYCAREAGAVTGYRWFDPWGQGTLVTVSS VL: DIQMTQSPSSLSASVGDRVTITCRASQSISSYLNWYQQKPGKAPKLLIYGASSLQSGVPSRFSGSGSGTDFTLTISSLQPEDFATYYCQQQYLTPLTFGGGTKVEIK | 151 | 1.51 nM | 987 | 1260 | 17.2% | no binding (tested: 100 nM) | 5.74 nM | 18.5% | 41.3% | 35.4% | 329 | 6.8%
C-91 (antibody, V domains shown, human IgG1) VH: EVQLVESGGGLVQPGGSLRLSCAASGFTFSSYWMSWVRQAPGKGLEWVANIKSDGSEKYYVDSVKGRFTISRDNAKNSLYLQMNSLRAEDTAVYYCARDVGGDYSGSDLASYWGQGTLVTVSS VL: DIQMTQSPSSLSASVGDRVTITCRASQSISSYLNWYQQKPGKAPKLLIYAASSLQSGVPSRFSGSGSGTDFTLTISSLQPEDFATYYCQQGYDPPLTFGGGTKVEIK | 150 | 1.2 nM | 893 | 1230 | 17.6% | no binding (tested: 100 nM) | 4.26 nM | 18.8% | 38.4% | 24.3% | 38.2 | 7%
C-109 (antibody, V domains shown, human IgG1) VH: EVQLVESGGGLVQPGGSLRLSCAASGFTFSSYWMSWVRQAPGKGLEWVANIKSDGSEKYYVDSVKGRFTISRDNAKNSLYLQMNSLRAEDTAVYYCARDVGGDYSGSDLASYWGQGTLVTVSS VL: not shown | 164 | 1.24 nM | 867 | 1240 | 17.6% | no binding (tested: 100 nM) | 4.8 nM | 30% | 38.9% | 31.1% | 247 | 8.3%
C-92 (antibody, V domains shown, human IgG1) VH: EVQLVESGGGLVKPGGSLRLSCAASGFTFSSYSMNWVRQAPGKGLEWVSSISSSSSYIYYADSVKGRFTISRDNAKNSLYLQMNSLRAEDTAVYYCARLGATATTDYAYGMDVWGQGTTVTVSS VL: not shown | 107 | 3.4 nM | 918 | 537 | 98.5% | no binding (tested: 100 nM) | 15.7 nM | 73.9% | – | 79.2% | 42.3 | 76.2%
C-95 (antibody, V domains shown, human IgG1) VH: not shown VL: DIVMTQSPDSLAVSLGERATINCKSSQSVLYSSNNKNYLAWYQQKPGQAPRLLIYGASSRATGIPDRFSGSGSGTDFTLTISRLEPEDFAVYYCQQDYSSPLTFGGGTKVEIK | 48 | 9.65 nM | 569 | 369 | 85% | no binding (tested: 100 nM) | 71.5 nM | 87.9% | – | 83% | 144 | 92.3%
C-8 (antibody, V domains shown, human IgG1) VH: not shown VL: EIVLTQSPGTLSLSPGERATLSCRASQSVSSSFLAWYQQKPGQAPRLLIYGASSRATGIPDRFSGSGSGTDFTLTISRLEPEDFAVYYCQQVASPPPTFGGGTKVEIK | 1370 | 1.95 nM | 204 | 980 | 12.7% | no binding (tested: 100 nM) | 6.94 nM | 42.1% | 87.3% | 51.9% | 193 | 12.7%
C-9 (antibody, V domains shown, human IgG1) VH: QLQLQESGPGLVKPSETLSLTCTVSGGSISSSSYYWGWIRQPPGKGLEWIGSIYYSGSTYYNPSLKSRVTISVDTSKNQFSLKLSSVTAADTAVYYCARESGFAGLDPWGQGTLVTVSS VL: EIVLTQSPGTLSLSPGERATLSCRASQSVSSSFLAWYQQKPGQAPRLLIYGASSRATGIPDRFSGSGSGTDFTLTISRLEPEDFAVYYCQQSEDWPTFGGGTKVEIK | 1700 | 1.09 nM | 175 | 886 | 27.8% | no binding (tested: 100 nM) | 4.17 nM | 26% | 63.4% | 33.1% | 307 | 20%
C-3 (antibody, V domains shown, human IgG1) VH: QVQLVQSGAEVKKPGSSVKVSCKASGGTFSNYAISWVRQAPGQGLEWMGGIIPIFGTANYAQKFQGRVTITADESTSTAYMELSSLRSEDTAVYYCARDTGTYVTGDGMDVWGQGTTVTVSS VL: EIVMTQSPATLSVSPGERATLSCRASQSVSSNLAWYQQKPGQAPRLLIYGASTRATGIPARFSGSGSGTEFTLTISSLQSEDFAVYYCQQYDVWPITFGGGTKVEIK | 1520 | 1.11 nM | 109 | 715 | 14.5% | no binding (tested: 100 nM) | 5.76 nM | 27.9% | 63.5% | 29.1% | 262 | 9.8%
C-10 (antibody, V domains shown, human IgG1) VH: QVQLVQSGAEVKKPGSSVKVSCKASGGTFSNYAISWVRQAPGQGLEWMGGIIPIFGTANYAQKFQGRVTITADESTSTAYMELSSLRSEDTAVYYCARDTGTYVTGDGMDVWGQGTTVTVSS VL: EIVMTQSPATLSVSPGERATLSCRASQSVSSNLAWYQQKPGQAPRLLIYGASTRATGIPARFSGSGSGTEFTLTISSLQSEDFAVYYCQQYVNLPITFGGGTKVEIK | 1230 | 1.41 nM | 107 | 792 | 13.8% | no binding (tested: 100 nM) | 6.24 nM | 19.5% | 44.5% | 31.5% | 246 | 12.3%
C-11 (antibody, V domains shown, human IgG1) VH: QVQLVQSGAEVKKPGSSVKVSCKASGGTFSNYAISWVRQAPGQGLEWMGGIIPIFGTANYAQKFQGRVTITADESTSTAYMELSSLRSEDTAVYYCARDTGTYVTGDGMDVWGQGTTVTVSS VL: EIVMTQSPATLSVSPGERATLSCRASQSVSSNLAWYQQKPGQAPRLLIYSASTRATGIPARFSGSGSGTEFTLTISSLQSEDFAVYYCQQYIVLPITFGGGTKVEIK | 1030 | 1.56 nM | 106 | 795 | 13% | no binding (tested: 100 nM) | 7.12 nM | 23.3% | 64.3% | 41.3% | 231 | 7.6%
C-12 (antibody, V domains shown, human IgG1) VH: EVQLLESGGGLVQPGGSLRLSCAASGFTFSNYAMSWVRQAPGKGLEWVSAISGSGGSTYYADSVKGRFTISRDNSKNTLYLQMNSLRAEDTAVYYCARDGSRYSYGLVAYGMDVWGQGTTVTVSS VL: EIVLTQSPGTLSLSPGERATLSCRASQSVSSSFLAWYQQKPGQAPRLLIYGASSRATGIPDRFSGSGSGTDFTLTISRLEPEDFAVYYCQQSQLRPTFGGGTKVEIK | 1120 | 1.84 nM | 208 | 1080 | 6.34% | no binding (tested: 100 nM) | 7.47 nM | 23.6% | 68.5% | 54.2% | 182 | 17.8%
